These results are taken from publication PMC3967765 (Archives of biochemistry and biophysics, 2014).

The target of data set [1] is T1, huCOX-2 (human cyclooxygenase-2) (Homo sapiens, UniProt P35354, N580A).
T1 sequence (P35354 18-604 N580A): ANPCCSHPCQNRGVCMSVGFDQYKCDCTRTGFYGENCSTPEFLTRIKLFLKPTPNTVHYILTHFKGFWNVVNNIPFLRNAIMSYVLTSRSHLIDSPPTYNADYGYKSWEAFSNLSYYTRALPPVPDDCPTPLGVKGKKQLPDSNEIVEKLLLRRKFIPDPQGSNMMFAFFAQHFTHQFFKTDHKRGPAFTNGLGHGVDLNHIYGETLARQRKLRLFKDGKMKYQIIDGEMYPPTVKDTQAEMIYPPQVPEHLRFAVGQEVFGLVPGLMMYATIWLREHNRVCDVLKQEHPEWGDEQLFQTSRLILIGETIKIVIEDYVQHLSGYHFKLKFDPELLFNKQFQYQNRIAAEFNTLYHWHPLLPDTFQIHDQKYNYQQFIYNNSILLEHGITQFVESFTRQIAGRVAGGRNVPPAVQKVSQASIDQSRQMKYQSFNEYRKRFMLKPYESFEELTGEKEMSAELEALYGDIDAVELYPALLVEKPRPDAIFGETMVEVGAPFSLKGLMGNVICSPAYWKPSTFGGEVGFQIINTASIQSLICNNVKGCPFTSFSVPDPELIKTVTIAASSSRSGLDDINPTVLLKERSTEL

Data set [2] deals with T1, huCOX-2 (human cyclooxygenase-2). The note with it: oxygen electrode.
Data set [3] deals with the molecule itself. The data set can be described thus: SEC.
Substrate in data set [4]: CCCCC/C=C\C/C=C\C/C=C\C/C=C\CCCC(=O)OCC(O)CO
In words: purified protein. The settings on record: heme (Fe3+-protoporphyrin IX).

Substrate in data set [5]: CC/C=C\C/C=C\C/C=C\C/C=C\C/C=C\CCCC(=O)O
In words: purified protein. The settings on record: heme (Fe3+-protoporphyrin IX).

Substrate in data set [6]: CCCCC/C=C\C/C=C\C/C=C\C/C=C\CCCC(=O)O
In words: purified protein. The settings on record: heme (Fe3+-protoporphyrin IX).

With `Cc1ccc(Cl)c(Nc2ccccc2C(=O)O)c1Cl` [Meclo, meclofenamic acid], the “oxygen electrode, 50 μM inhibitor, 30 min pre-incubation” value in data set [1] is “Flurbiprofen, indomethacin, meclofenamic acid, and celecoxib caused near complete inhibition of cyclooxygenase activity”.
Regarding `COc1ccc2cc([C@H](C)C(=O)O)ccc2c1` [Napx, naproxen], the “% loss of activity” value in data set [2] was 60-70 % loss of activity.

B1: FLAG N580A murine (mu) COX-2 (enzyme, UniProt Q05769 18-604, looked up)
chain: ANPCCSNPCQNRGECMSTGFDQYKCDCTRTGFYGENCTTPEFLTRIKLLLKPTPNTVHYILTHFKGVWNIVNNIPFLRSLIMKYVLTSRSYLIDSPPTYNVHYGYKSWEAFSNLSYYTRALPPVADDCPTPMGVKGNKELPDSKEVLEKVLLRREFIPDPQGSNMMFAFFAQHFTHQFFKTDHKRGPGFTRGLGHGVDLNHIYGETLDRQHKLRLFKDGKLKYQVIGGEVYPPTVKDTQVEMIYPPHIPENLQFAVGQEVFGLVPGLMMYATIWLREHNRVCDILKQEHPEWGDEQLFQTSRLILIGETIKIVIEDYVQHLSGYHFKLKFDPELLFNQQFQYQNRIASEFNTLYHWHPLLPDTFNIEDQEYSFKQFLYNNSILLEHGLTQFVESFTRQIAGRVAGGRNVPIAVQAVAKASIDQSREMKYQSLNEYRKRFSLKPYTSFEELTGEKEMAAELKALYSDIDVMELYPALLVEKPRPDAIFGETMVELGAPFSLKGLMGNPICSPQYWKPSTFGGEVGFKIINTASIQSLICNNVKGCPFTSFNVQDPQPTKTATIAASASHSRLDDINPTVLIKRRSTEL
Turning to B1, the “stoichiometry N” value in data set [3] was found to be 2. In addition, in data set [4], the Km is reported as 6.8 µM, the kcat came to 30.9 ± 0.7 s⁻¹ and the kcat/Km stood at 4.5e+06 M⁻¹ s⁻¹. For the same molecule, in data set [5], the Km amounted to 1.9 µM, the kcat came to 6.3 s⁻¹ and the kcat/Km stood at 3.3e+06 M⁻¹ s⁻¹. Also, in data set [6], the Km was 6.8 µM, the kcat turned out to be 36.1 s⁻¹ and the kcat/Km amounted to 5.3e+06 M⁻¹ s⁻¹.
